Experimental data from the supplement of paper PMC9170038.

Test system: MS2 coat protein
Test: apparent KD of MS2 coat protein; designed switch direction (-1 OFF switch, 1 ON switch): -1; higher = weaker reporter binding
Procedure, shortened: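 The apparent KD reported per design is the median over clusters of curve fits to normalised cluster fluorescence. The RNA switches were transcribed on Illumina chips by stalled E. coli RNA polymerase. SNAP-549-labelled MS2 coat protein was titrated from 0.7 or 1.5 nM, doubling up to 3 µM, in Tris-HCl pH 7.5 buffer containing KCl, MgCl2, BSA, DTT, tRNA and Tween-20, with no input, 200 uM small-molecule ligand, or an oligonucleotide input.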

[1] = Eterna round: R95, input ligand: microRNA oligo, concentration not stated
[2] = input ligand: microRNA oligo, concentration not stated
[3] = Eterna round: R95, input ligand: FMN 200 uM
[4] = Eterna round: R95, input ligand: none

Sequence | apparent KD of MS2 coat protein (input ligand: FMN 200 uM) | apparent KD of MS2 coat protein (input ligand: none) | apparent KD of MS2 coat protein [1] | apparent KD of MS2 coat protein [2] | apparent KD of MS2 coat protein [3] | apparent KD of MS2 coat protein [4]
GCCGAAAGUGUGAGGAUAUACCUAUGGAUACAUAGGUAGAAGGCACAUGAGGAUCACCCAUGUGGGAAAACGGC [Eli bmx4 4.30] (Eterna round: R97, puzzle: Brourd's mod of Exclusion 4) | 1140 nM | 190 nM | – | – | – | –
GCCGAUUAAGUCAGGAUAUACCUAUGGAUACAUAGGUAGAAGGGACAUGAGGAUCACCCAUGUUCCUCACCGGC [Fiskers BMX 4 - 15] (puzzle: Brourd's mod of Exclusion 4) | – | – | 12 nM | – | – | –
GCCGCUGUAGGAUAUGCCAGGGUGGCAGCUUGAUGUGUGGCACAUGAGGAUCACCCAUGUAGAAGGACAGAAAG [Isvelera] (puzzle: Exclusion 2) | – | – | 17.1 nM | – | – | –
GCCGUAAGUGUGAGGAUAUACCUAUGGAAACAUAGGUAGAAGGCACAUGAGGAUCACCCAUGUCCUUAAUCGGC [Mat - Exclusion 4 - Eli Mod - D4] (Eterna round: R97, puzzle: Brourd's mod of Exclusion 4) | 366 nM | 224 nM | – | – | – | –
GCCGUUAAGGUAGGAUAUGCUCGGUCUGUGCGUGCAGAAGGGCUGGUCGGCGACUUGAGGAUCACCCAAGUGGUCUUAUAGAAA [Mutated MS2 EX1.21] (Eterna round: R96, puzzle: Exclusion NG 1) | 121 nM | 64.8 nM | – | 142 nM | – | –
GCCUUACAUGAGGAUCACCCAUGUCAGGAUAUCGUUCAAGAUCUGACCUUAGAUCGAUCGAGAAGGGACUGGAU [Eternabot (L1) Solution 39] (Eterna round: R97, puzzle: Exclusion 1) | 27.4 nM | 17.2 nM | – | – | – | –
GCCUUAUCCGUCAGGAUAUACAUUUUUUUUUUUUUGUAGAAGGGACAUGAGGAUCACCCAUGUACAUUACAUUG [alecazam17] (Eterna round: R97, puzzle: Brourd's mod of Exclusion 4) | 41 nM | 22.9 nM | – | – | – | –
GCGAAAGCAAACAGGUGAAACAUGAGGAUCACCCAUGUCCUCAUUUGCUCGUCUUAUAAGCUAUGCGAAAGCAUAGC [Sensor 3, v1 - 8] (puzzle: Sensor v3, turn-off variant 1) | – | – | 935 nM | – | 100 nM | 109 nM
GCGAAUAACGAGGAUAUCGUAUCGGAAACGAUACGAGAAGGUGUAACAUGAGGAUCACCCAUGUUCCUCAACGC [Fiskers Ex 6 - 7] (puzzle: Exclusion 6) | – | – | 33.1 nM | – | – | –
GCGACUGGAGGAUAUACAUGAGGAUCACCCAUGUGAUCUAAAAGGGUCUUAUGCCGGUGUAGAAGGCCGAGCAG [Eternabot (L2) Solution 84] (Eterna round: R97, puzzle: Exclusion 3) | 26.7 nM | 27.3 nM | – | – | – | –
GCGCACCUACCAAAAGGUAGGCUAACAUGAGGAUCACCCAUGUAGGAUAUCGAUUGCUUUGCAGUCGAGAAGGACAUGAUGCGC [JL ENG3 3.80 Mod 11] (Eterna round: R96, puzzle: Exclusion NG 3) | 73.2 nM | 30 nM | – | 21.4 nM | – | –
GCGCAGUCAGGAUAUGCCGGAUAGGAUCACCCUGUCCAAAGGCAGAAGGGACAUGAGGAUCACCCAUGUGGCGC [e4e Mirror Pins] (puzzle: Exclusion 4) | – | – | 17.7 nM | – | 22.2 nM | 16.8 nM
GCGCCAUCGUGAGAUGGCGUAUAUACAUGAGGAUCACCCAUGUAGGAUAUCGAUUGCUUUGCAGUCGAGAAGGGCGUGUAAUUU [JL ENG3 3.92] (Eterna round: R96, puzzle: Exclusion NG 3) | 45.7 nM | 34.8 nM | – | 22.5 nM | – | –
GCGCCUUGAGUGAGGAUAUGUUCAUAGUCGCUUGGAUAGAAGGCACAUGAGGAUCACCCAUGUAUCGGAGUUAA [Eternabot (L2) Solution 39] (Eterna round: R97, puzzle: Brourd's mod of Exclusion 4) | 48.2 nM | 33.9 nM | – | – | – | –
GCGCGAAGGUAGGAUAUCGAGGGAUCUUCCCGCCGAGAAGGACCCACAUGAGGAUCACCCAUGUGGUGAUCCUG [eternacac ex6r4 sub9] (Eterna round: R97, puzzle: Exclusion 6) | 27.1 nM | 49.4 nM | – | – | – | –
GCGGACAAGAUCGCGAGAUCAGAGACAUGAGGAUCACCCAUGUAGGAUAUCGAUUCGAAACGAAUCGAGAAGGGCAUAGUCCGC [JL denovo 5] (Eterna round: R96, puzzle: Exclusion NG 3) | 17.3 nM | 19.4 nM | – | 11.6 nM | – | –
GCGGACAAGAUGGCGACAUCAGAGACAUGAGGAUCACCCAUGUAGGAUAUCGAUUCGAAACGAAUCGAGAAGGGCAUAGUCCGC [JL denovo 34] (Eterna round: R96, puzzle: Exclusion NG 3) | 14.7 nM | 16.7 nM | – | 10.3 nM | – | –
GCGGACUUGAACGUGAGUUCAGAGACAUGAGGAUCACCCAUGUAGGAUAUCGAUUCGAAACGAAUCGAGAAGGGCAUAGUCCGC [JL denovo 13] (Eterna round: R96, puzzle: Exclusion NG 3) | 23.3 nM | 16.1 nM | – | 11.8 nM | – | –
GCGGAGAUCGUAUGAUAAUACAUGAGGAUCACCCAUGUGUAUACGAUGCAUGGUACCCGCCGCUUUGCUUGUCUUGC [Eternabot (L1) Solution 30] (Eterna round: R97, puzzle: Sensor, turn-off variant 1) | 16.4 nM | 16.7 nM | – | – | – | –
GCGGCUGACGUCAGGAUAUCCGUACCGUAUGGGUGGGAGAAGGGACAUGAGGAUCACCCAUGUUAAUCUAUUAA [Eternabot (L1) Solution 45] (Eterna round: R97, puzzle: Brourd's mod of Exclusion 4) | 62.7 nM | 58.4 nM | – | – | – | –
GCGUAGUAUGUAGGAUAUCGGUCAGUUUCUGAUCGAGAAGGACAUGAGGAUCACCCAUGUAAAACGUCCGGUUUCUGGAUACGC [JL ENG1 3.57] (Eterna round: R96, puzzle: Exclusion NG 1) | 27.5 nM | 23 nM | – | 16.3 nM | – | –
GCUAGGCAUGUCAGGAUAUGCUGUACCUUGGUACAGCAGAAGGGACAUGAGGAUCACCCAUGUGCCAACCUAGC [JL-BMX4-4.02] (Eterna round: R97, puzzle: Brourd's mod of Exclusion 4) | 736 nM | 55.9 nM | – | – | – | –
